Results on five molecules are retold here after patent US20250381223A1 (UTC THERAPEUTICS SHANGHAI, published 2025).

Changes are numbered by the printed parent chain. Values joined by “and” are separate entries in the source; they are usually repeats but may differ in a detail not shown here. Equal values may be shown once.

Test [1] addresses T1, recombinant human CD40-His antigen protein (human, UniProt P25942 21-193).
T1 construct: Bought protein; also called recombinant CD40-His protein; CD40 antigen; not shown: His tag
In words: ELISA; plate coated with CD40-His 2 µg/mL; IgG1, anti-human IgG-Fc (HRP). The procedure: Therefore, the affinity of the CD40 antibody (in the form of a human classical monoclonal antibody IgG1) was detected by in vitro binding ELISA. The brief experimental procedures were as follows: [0569] (1) Construction of antibody expression plasmid: an antibody VH region was subcloned into a pEF vector containing a human CH1-Fc antibody fragment, and an antibody VL region was subcloned into a pEF vector containing a human CL antibody fragment. [0570] (2) Antibody expression: 33 μg of an antibody heavy chain expression plasmid and 67 μg of an antibody light chain expression plasmid were co-transfected into 293F suspension cells by PEI. After 4 days of culture, the supernatant was collected by centrifugation. [0571] (3) Antibody purification: the protein supernatant and protein A purification medium were incubated on ice for 2 h, and then the supernatant and the purification medium were separated by a gravity column. The purification medium was rinsed thoroughly with 100 mL of pre-cooled PBS to remove impure proteins, and finally, the target protein was eluted from the purification medium with 5-10 mL of 0.1 M Glycine-HCl (pH 2.7), and 1/10 volume of 1 M Tris-HCl (pH 9.0) was immediately added to neutralize the antibody. […] After the protein concentration was measured with A280, the antibody was packaged and cryopreserved at −80° C. […]

For test [2], the target named is T1, recombinant human CD40-His antigen …. Description: ELISA; plate coated with CD40-His 2 µg/mL; HRP-anti-hFc. The protocol:
The binding activities of the affinity-matured antibodies for antigen CD40 were detected by ELISA. The experimental procedures were as follows: [0637] 1. 50 μL of recombinant CD40-His protein at a concentration of 2 μg/mL was added to each well of an ELISA plate, and the plate was incubated at 4° C. overnight. […] 2. The next day, the ELISA plate was washed 3 times with PBST (containing 0.05% Tween-20). [0639] 3. 250 μL of 5% skim milk powder (dissolved in PBS) was added to each well of the ELISA plate, and the plate was incubated at room temperature for 2 h. [0640] 4. The plate was washed 3 times with PBST, antibodies with different dilution ratios were added to the ELISA plate at 50 μL/well, and the plate was incubated at room temperature for 60 min. [0641] 5. The plate was washed 3 times with PBST, 50 μL of HRP-anti-hFc antibody was added to each well, and the plate was incubated at room temperature for 60 min. [0642] 6. The plate was washed 3 times with PBST, 50 μL of TMB was added to each well, and after color development at room temperature, 50 μL of 2 M HCl was added to each well to stop the reaction. The plate was read at 450 nm.
Background: An ELISA detects its analyte on a solid surface through an enzyme-linked reagent.

For test [3], the target named is T2, CD40 (analyte of the SPR assay) (UniProt P25942 21-193).
T2 construct: Injected at 3.125-100 nM over captured antibody; also called CD40 antigen
In words: SPR (Biacore 2000); antibody captured on protein A chip, CD40 3.125-100 nM; heterogeneous ligand model, KD1. The procedure:
(§1) The experimental procedures were as follows: The binding affinities between the antibodies and the CD40 antigen were detected by SPR technique using Biacore 2000 (Cytiva, Sweden). All experiments were performed at 25° C. […] CD40 diluted in a 2-fold gradient (3.125-100 nM) was injected into the mobile phase. The association time was set at 90 s and the dissociation time at 300 s. The chip surface was regenerated by incubation with 10 mM Glycine-HCl (pH 1.5) for 30 s to remove the bound CD40 and antibody. The affinity of the antibody was simulated using a biphasic ligand model (heterogenerous ligand mode) in the build-in Biacore Evaluation software of the machine.

The target in test [4] is T2, CD40 (analyte of the SPR assay). Description: SPR (Biacore 2000); antibody captured on protein A chip, CD40 3.125-100 nM; heterogeneous ligand model, KD2. The procedure:
as §1

For test [5] the target is unchanged. Description: SPR (Biacore 2000); antibody captured on protein A chip, CD40 3.125-100 nM; heterogeneous ligand model, ka1. The protocol:
as §1
(SPR reads the build-up and loss of mass on a sensor chip optically.)

Test [6] has the same target. In words: SPR (Biacore 2000); antibody captured on protein A chip, CD40 3.125-100 nM; heterogeneous ligand model, ka2. The protocol: (§2) The affinity kinetics of the affinity-matured antibodies were detected using surface plasmon resonance (SPR) technique.
as §1

Test [7] has the same target. In words: SPR (Biacore 2000); antibody captured on protein A chip, CD40 3.125-100 nM; heterogeneous ligand model, kd1. The procedure: as §2, §1
Test [8] has the same target. In words: SPR (Biacore 2000); antibody captured on protein A chip, CD40 3.125-100 nM; heterogeneous ligand model, kd2. The procedure:
as §1

For test [9], the target named is T3, CD40-Fc ( for this staining reagent …, UniProt P25942).
T3 construct: soluble Fc fusion; Staining reagent, detected with PE-anti-Fc
In words: flow cytometry, lentivirus-transduced T cells, CD40-Fc + PE-anti-Fc. The procedure:
(§3) The transduction efficiency of the CAR-T cells was detected as follows: […] CAR-T cells were plated into each well of a 96-well plate, and the plate was washed once with PBS. 50 μL of Meso-Fc or CD40-Fc protein at a final concentration of 2 μg/mL was added to each well, and the mixture was incubated for 30 min at 4° C. The cells were washed 3 times with PBS, and 50 μL of PE-anti-Fc antibody at a final concentration of 1 μg/mL was added to each well. The mixture was incubated at 4° C. for 30 min. After being washed twice with PBS, the cells were detected by a flow cytometer.
A general note: In flow cytometry, cells or beads pass a laser one at a time.

In test [10] the target is T4, mesothelin-Fc recombinant protein (human, UniProt Q13421 296-580, limits assumed).
T4 construct: construct not described; also called Meso-Fc; not shown: Fc part
Description: flow cytometry, T cells with CAR mRNA, mesothelin-Fc + PE-anti-IgG-Fc; Control 0.63. The procedure: Mesothelin CAR mRNA obtained in Example 26 above was introduced into A549 tumor cells and T cells by electroporation, and the procedures are as follows: A549 tumor cells and T cells were collected and washed 3 times with the Opti-MEM medium. The cell pellet was resuspended in the Opti-MEM medium and the cell concentration was adjusted to 1×10e7 cells/mL. 10 μg of RNA was aliquoted into 1.5-mL EP tubes, 100 μL of T cells or A549 cells were added, followed by mixing well. 100 μL of cells mixed with RNA were added to the BTX electroporation cuvette and slight tapping was performed to avoid air bubbles. Electroporation was performed using a BTX instrument under the following parameters: for T cells: 500 V voltage, 0.7 ms; for A549 tumor cells: 300 V voltage, 0.5 ms. The cells were then transferred to a pre-warmed medium and cultured at 37° C. The binding of mesothelin CART cells to the mesothelin-Fc recombinant protein was determined by FACS staining. […] T cells without CAR molecules served as the control (“Mock”).

Test [11] deals with T5, CD40-Fc (human, UniProt P25942).
T5 construct: part fused to Fc; staining reagent of the flow cytometry; also called recombinant human CD40-Fc antigen protein
In words: flow cytometry of T cells electroporated with 2 µg M12 CAR mRNA alone; CD40-Fc + PE-anti-Fc.

The target of test [12] is T3, CD40-Fc. Description: flow cytometry, lentivirus-transduced T cells, CD40-Fc 2 µg/mL + PE-anti-Fc; UTD 0.66, M12 1.16. The procedure: as §3

T4 sequence (Q13421 other isoform, or with tags, fused parts or gaps limits assumed): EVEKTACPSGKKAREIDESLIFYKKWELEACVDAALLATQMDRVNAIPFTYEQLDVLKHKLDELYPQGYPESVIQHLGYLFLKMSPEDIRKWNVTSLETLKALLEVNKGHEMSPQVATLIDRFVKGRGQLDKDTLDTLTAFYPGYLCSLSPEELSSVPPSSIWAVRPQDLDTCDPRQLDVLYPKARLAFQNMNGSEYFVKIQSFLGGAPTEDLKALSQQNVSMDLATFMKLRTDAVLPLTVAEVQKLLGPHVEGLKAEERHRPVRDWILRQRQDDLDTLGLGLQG

B1: F2.103 (antibody, V domains shown)
VH: EVQLVESGGGLVQPGGSLRLSCAVSGFTFSTYWMHWVRQAPGKGLVWVSRINSDGSSTTYADSVKGRFTISRDNAKNTLYLQMNSLRAEDTAVYYCARDRVLWIGELSYYGMDVWGQGTTVTVSS
VL: DIQMTQSPSTLSASVGDRVTITCRASQSISNWLAWYQQKPGKAPKLLLYKASGLESGVPSRFSGSGSGTEFTLTINSLQPDDFATYYCQQSNSYSWTFGHGTKVEIKR
By EC50 is commonly meant the midpoint of the concentration-response curve. With B1, in [1], the half-maximal effective concentration (EC50) is 0.0448 µg/mL and 305 nM.

B2: 40.52 (antibody, V domains shown)
VH: QVQLVQSGAEVKKPGSSVKVSCKASGGTFSSYAISWVRQAPGQGLEWMGMINPSGGTTSYAQKFQGRVTMTRDTSTSTVYMELSSLRPEDTAVYYCARGFRMDQWGQGTLVTVSS
VL: QSALTQPPSASGSPGQSVTISCTGTSSDVGAYNFVSWYQQHPGNAPKLIIYDVRKRPSGIPDRFSASKSGNTASLTVSGLQADDEADYYCSSYAGNNNLVFGGGTKLTVL
notes: Tested as human IgG1 (VH on human CH1-Fc, VL on human CL)
As a reminder, the Kd is a measure of binding affinity in units of concentration. Usually kon stands for the second-order rate constant of association. One may read the koff as a measure of how fast the partners let go of each other. Consider B2, for which the EC50 in [2] was 0.0975 µg/mL; in test [1], 0.0492 µg/mL and 344 nM. In addition, the values for the Kd in test [3] and in test [4] were 0.864 nM and 103 nM, respectively. Also, the kon in test [5] came to 1.34e+06 M⁻¹ s⁻¹; in [6], 861000 M⁻¹ s⁻¹. Moreover, the koff in test [7] was found to be 0.00115 s⁻¹; in test [8], 0.0885 s⁻¹.

B3: 4052.17 (antibody, V domains shown)
VH: B2 VH
VL: B2 VL with N98E, L99M
B3: the EC50 in test [2] was 0.0944 µg/mL. Also, the Kd amounted to 0.686 nM in test [3] and 48.4 nM in [4]. In addition, the kon stood at 1.49e+06 M⁻¹ s⁻¹ in test [5] and 748000 M⁻¹ s⁻¹ in test [6]. Further, the koff was 0.00102 s⁻¹ in [7] and 0.0362 s⁻¹ in test [8].

B4: anti-mesothelin scFv-M12 (scFv)
scFv: AIRLTQSPSLLSASVGDRVTVTCRASQGGGNYLAWYQQKPGKAPKLLIYGASKLQSGVPSRFSGSGSGTEFTLTISSLQPEDFATYYCQQLNSYPVTFGQGTKVDIKGGGGSGGGGSGGGGSEVQLVESGAEVKKPGASVKVSCKASGYTFTTYYIHWVRQAPGQGLEWMGIINPSSGSTTYTQKFQGRVTMTRDTSTSTVYIELSGLRSEDTAVYYCARGETLRGYFDYWGQGTLVTVSS
notes: On mRNA-electroporated T cells as CAR; also called Meso-CAR (M12)
Take B4: the binding result is “no binding (tested: 2 µg/mL)” with CD40-Fc [9] and “no binding” in the test with CD40-Fc [11]. Besides, the “percent of cells in the gate” value in test [10] worked out at 86.5%.

B5: A40C2828 (other)
membrane fusion protein with an anti-CD40 antibody part: QVQLVQSGAEVKKPGASVKVSCTASGFNIKDYYVHWVKQAPGQGLEWMGRIDPEDGDSKYAPKFQGKATMTADTSTSTVYMELSSLRSEDTAVYYCTTSYYVGTYGYWGQGTLVTVSSGGGGSGGGGSGGGGSDIQMTQSPSSLSASVGDRVTITCSASSSVSYMLWFQQKPGKAPKLLIYSTSNLASGVPSRFSGSGSGTDFTLTISSLQPEDFATYYCQQRTFYPYTFGGGTKVEIKRTASIEVMYPPPYLDNEKSNGTIIHVKGKHLCPSPLFPGPSKPFWVLVVVGGVLACYSLLVTVAFIIFWVRSKRSRLLHSDYMNMTPRRPGPTRKHYQPYAPPRDFAAYRS
notes: also called new A40C28; New A40C28
For the molecule B5, in the test with CD40-Fc [12], the “percent of cells in the gate” value is 39.8%.
